The target in this experiment is T1, C. elegans syntaxin-GST (UNC-64 cytoplasmic domain, aa 1-266) (C. elegans, UniProt O16000 1-266).
T1 construct: C. elegans syntaxin (UNC-64), cytoplasmic domain aa 1-266, lacking the TM domain, cloned into pGEX-2T; pGEX-2T normally puts GST at the N-terminus (surmise); also called GST syntaxin; source: recombinant, batch-purified with glutathione agarose under native conditions
T1 sequence (looked up): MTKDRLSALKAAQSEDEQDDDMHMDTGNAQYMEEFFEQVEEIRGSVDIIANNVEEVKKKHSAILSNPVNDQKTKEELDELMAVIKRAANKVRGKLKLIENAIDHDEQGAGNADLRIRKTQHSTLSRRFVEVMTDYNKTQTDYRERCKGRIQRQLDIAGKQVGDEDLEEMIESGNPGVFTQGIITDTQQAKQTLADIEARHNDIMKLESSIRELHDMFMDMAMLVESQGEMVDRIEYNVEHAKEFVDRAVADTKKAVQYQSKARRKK
In words: pull-down; ~1.6 uM each of C. elegans syntaxin-GST, rat SNAP-25-His6 and His6-TOM-1Ct or His6-SNB-1, 2 h to overnight at 4 °C in D-buffer, isolated on glutathione agarose; Coomassie Blue staining, densitometry. The conditions noted are these: both partners purified.

B1: C. elegans synaptobrevin SNB-1 cytoplasmic domain (aa 1-88), His6T7-tagged (domain or fragment, UniProt O02495 1-88, looked up)
chain: MDAQGDAGAQGGSQGGPRPSNKRLQQTQAQVDEVVGIMKVNVEKVLERDQKLSQLDDRADALQEGASQFEKSAATLKRKYWWKNIKMM
notes: C. elegans synaptobrevin (SNB-1), cytoplasmic domain aa 1-88, lacking the TM domain, cloned into pRSETC; also called His6T7-tagged SNB-1; His6-SNB-1; source: recombinant, purified (Ni-NTA agarose)
For the molecule B1, the binding result is “binds”.

The record behind these values is PMC1514790, “Tomosyn Inhibits Synaptic Vesicle Priming in Caenorhabditis elegans” (PLoS Biology, 2006).
